The record followed here is paper PMC9666628 (Nature Communications, 2022).

Numbering of substitutions follows the chain as printed.

Details in all cases: both partners purified
The target of assay [1] is T1, Cbx7.V1 (tags removed, used for FP and ITC) (human, UniProt O95931 7-66, E8D (printed as the back-mutation D8E) | Q9D | V10I (printed as the …)).
T1 construct: chromodomain of human Cbx7 (Cbx7-chromo), UniProt O95931; source: E. coli BL21(DE3), purified (Ni-NTA; tags removed with TEV protease)
T1 sequence: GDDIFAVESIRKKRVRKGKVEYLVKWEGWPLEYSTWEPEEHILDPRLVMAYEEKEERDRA
The assay can be described thus: ITC; peptides (1.2-2 mM, syringe) titrated into Cbx7.V1 (70-112 µM, cell); 25 °C; PBS pH 7.4, 1 mM TCEP; one-site binding model. A general note: In ITC the heat of successive injections is recorded.

Assay [2] addresses T2, Cbx7.V1 (His6- and Flag-tagged construct, used for BLI) (human, UniProt O95931 7-66, E8D (printed as the back-mutation D8E) | Q9D | V10I (printed as the …)).
T2 construct: chromodomain of human Cbx7 (Cbx7-chromo), UniProt O95931; removal of the tags is told only for FP and ITC; source: E. coli BL21(DE3), purified (Ni-NTA)
T2 sequence: T1 sequence
The assay can be described thus: BLI; biotinylated peptides immobilised on streptavidin biosensor tips (Octet HTX); chromodomains in solution at 5 or 1 µM; 25 °C; 25 mM HEPES pH 7.0, 150 mM NaCl, 1 mg/ml BSA, 0.01% Tween-20; steady-state fit, Langmuir model.

The next assay deals with T3, Cbx7.V1 L37P back-mutant (human, UniProt O95931 7-66, E8D (printed as the back-mutation D8E) | Q9D | V10I (printed as the …)).
T3 construct: chromodomain of human Cbx7, UniProt O95931; Cbx7.V1 with residue 37 back to the wild type; source: E. coli BL21(DE3), purified (Ni-NTA)
T3 sequence: T1 sequence with L31P
Described as above.

A further assay deals with T4, Cbx7.V1 E33K back-mutant (human, UniProt O95931 7-66, E8D (printed as the back-mutation D8E) | Q9D | V10I (printed as the …)).
T4 construct: chromodomain of human Cbx7, UniProt O95931; Cbx7.V1 with residue 33 back to the wild type; source: E. coli BL21(DE3), purified (Ni-NTA)
T4 sequence: T1 sequence with E27K
Described as above.

A further assay concerns the target T5, Cbx7.V1 E38K back-mutant (human, UniProt O95931 7-66, E8D (printed as the back-mutation D8E) | Q9D | V10I (printed as the …)).
T5 construct: chromodomain of human Cbx7, UniProt O95931; Cbx7.V1 with residue 38 back to the wild type; source: E. coli BL21(DE3), purified (Ni-NTA)
T5 sequence: T1 sequence with E32K
Described as above.

The target in a further assay is T6, Cbx7.V1 I10V back-mutant (human, UniProt O95931 7-66, E8D (printed as the back-mutation D8E) | Q9D | K33E | P37L (printed as the …)).
T6 construct: chromodomain of human Cbx7, UniProt O95931; Cbx7.V1 with residue 10 back to the wild type; source: E. coli BL21(DE3), purified (Ni-NTA)
T6 sequence: T1 sequence with I4V
Described as above.

A further assay deals with T7, Cbx7.V1 D8E back-mutant (human, UniProt O95931 7-66, Q9D | V10I (printed as the back-mutation I10V) | K33E | P37L (printed as the …)).
T7 construct: chromodomain of human Cbx7, UniProt O95931; Cbx7.V1 with residue 8 back to the wild type; source: E. coli BL21(DE3), purified (Ni-NTA)
T7 sequence: T1 sequence with D2E
The description is as above.

For a further assay, the target named is T8, Cbx7.V1 D9Q back-mutant (human, UniProt O95931 7-66, E8D (printed as the back-mutation D8E) | V10I (printed as the back-mutation …)).
T8 construct: chromodomain of human Cbx7, UniProt O95931; Cbx7.V1 with residue 9 back to the wild type; source: E. coli BL21(DE3), purified (Ni-NTA)
T8 sequence: T1 sequence with D3Q
Described as above.

A further assay addresses T9, Cbx7.V1 (human, UniProt O95931 7-66, E8D (back-mutant printed as D8E) | Q9D (back-mutant printed as D9Q) | V10I …).
T9 construct: also called Cbx7.5; source: E. coli BL21(DE3), purified (Ni-NTA); tags removed with TEV protease
T9 sequence: T1 sequence
The assay can be described thus: fluorescence polarisation; 0.5 nM FITC-labeled peptide, chromodomain serially diluted (wild type 200-0.2 µM; Cbx7.V1 50 µM-50 nM); 25 mM HEPES pH 7.5, 150 mM NaCl, 1 mM DTT, 0.01% TritonX-100; 30 min at 25 °C; one-site total binding model. (Fluorescence polarisation rises when a labelled molecule tumbles more slowly, as on binding a larger partner.)

Another assay has as its target T10, Cbx7 K33E (human, UniProt O95931 7-66, K33E).
T10 construct: chromodomain of human Cbx7 (UniProt O95931) with K33E; source: E. coli BL21(DE3), purified (Ni-NTA); tags removed with TEV protease
T10 sequence: T1 sequence with D2E, D3Q, I4V, L31P, E32K
Described as above.

Another assay has as its target T11, Cbx7 Q9D (human, UniProt O95931 7-66, Q9D).
T11 construct: chromodomain of human Cbx7 (UniProt O95931) with Q9D; source: E. coli BL21(DE3), purified (Ni-NTA); tags removed with TEV protease
T11 sequence: T1 sequence with D2E, I4V, E27K, L31P, E32K
The description is as above.

B1: H3K27me3 peptide, N-terminal biotin (peptide)
chain: KQLATKAARKSAPATGGVK
modifications: trimethyl-lysine at K27; biotin followed by an aminohexanoic acid linker at the N-terminus
Broadly, the Kd is a measure of binding affinity in units of concentration. The term stoichiometry N denotes a count of units in the complex or per binding partner. On to B1, for which the Kd in [1] was 7.8 µM; in assay [2], 2 µM; with Cbx7.V1 L37P back-mutant, 2.5 µM; in the assay with Cbx7.V1 E33K back-mutant, over 20 µM; in the assay with Cbx7.V1 E38K back-mutant, 1.5 µM; with Cbx7.V1 I10V back-mutant, 2 µM. Besides, the Kd in the assay with Cbx7.V1 D8E back-mutant and with Cbx7.V1 D9Q back-mutant was 2 µM each time. Moreover, the “stoichiometry N” value in assay [1] is about 1.

B2: FITC-labeled H3K9me3 peptide (peptide)
peptide: ARTKQTARKSTGGKAPR
modifications: trimethyl-lysine at K9 (Kme3); fluorescein isothiocyanate (FITC) on the N-terminus
notes: histone H3 N-terminal tail, residues 1-17; source: synthetic peptide (GenScript)
Take B2: the Kd with Cbx7.V1 is 7.2 µM; with Cbx7 K33E, 18 µM; with Cbx7 Q9D, 12.3 µM.

B3: FITC-labeled H3K27me3 peptide (peptide)
peptide: KQLATKAARKSAPATGGVK
modifications: trimethyl-lysine at K27 (Kme3); fluorescein isothiocyanate (FITC) on the N-terminus
notes: histone H3 tail, residues 18-36; source: synthetic peptide (GenScript)
On to B3, for which the figures for the Kd in the assay with Cbx7.V1, with Cbx7 K33E and with Cbx7 Q9D were 4.2 µM, 17.5 µM and 97 µM, respectively.

B4: H3K9me3 peptide, N-terminal biotin (peptide)
chain: ARTKQTARKSTGGKAPR
modifications: trimethyl-lysine at K9; biotin followed by an aminohexanoic acid linker at the N-terminus
As for B4, the Kd in assay [1] was 7 µM; in assay [2], 4.5 µM; in the assay with Cbx7.V1 L37P back-mutant, 3 µM; in the assay with Cbx7.V1 E33K back-mutant, 10 µM; with Cbx7.V1 E38K back-mutant it was 2 µM; with Cbx7.V1 I10V back-mutant it was 3.5 µM. For the same molecule, the Kd was 5 µM with Cbx7.V1 D8E back-mutant and over 20 µM with Cbx7.V1 D9Q back-mutant. In addition, in assay [1], the “stoichiometry N” value is about 1.
